# T1: HPV51 VLP protein (human papillomavirus type 51, UniProt P26536 1-474)
# T1 construct: Complete VLP protein; no limits of the construct printed, whole entry named; also called HPV51L1
# T1 sequence: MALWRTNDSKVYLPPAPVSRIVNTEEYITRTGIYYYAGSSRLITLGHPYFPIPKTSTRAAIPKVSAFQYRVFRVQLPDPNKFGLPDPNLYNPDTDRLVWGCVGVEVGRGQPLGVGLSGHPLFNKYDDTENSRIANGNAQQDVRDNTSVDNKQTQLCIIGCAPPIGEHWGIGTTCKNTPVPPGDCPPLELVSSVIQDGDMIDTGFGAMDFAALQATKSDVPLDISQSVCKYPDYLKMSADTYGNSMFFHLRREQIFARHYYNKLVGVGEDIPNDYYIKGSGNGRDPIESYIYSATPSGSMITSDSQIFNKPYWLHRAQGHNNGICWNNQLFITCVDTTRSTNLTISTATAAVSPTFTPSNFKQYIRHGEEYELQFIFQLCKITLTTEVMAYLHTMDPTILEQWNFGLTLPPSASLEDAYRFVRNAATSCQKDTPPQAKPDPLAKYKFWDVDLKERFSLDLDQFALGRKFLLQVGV
# T2: HPV58 VLP protein (human papillomavirus type 58, UniProt P26535 27-499)
# T2 construct: Complete VLP protein; no limits of the construct printed, whole entry named; also called P58SHELL
# T2 sequence: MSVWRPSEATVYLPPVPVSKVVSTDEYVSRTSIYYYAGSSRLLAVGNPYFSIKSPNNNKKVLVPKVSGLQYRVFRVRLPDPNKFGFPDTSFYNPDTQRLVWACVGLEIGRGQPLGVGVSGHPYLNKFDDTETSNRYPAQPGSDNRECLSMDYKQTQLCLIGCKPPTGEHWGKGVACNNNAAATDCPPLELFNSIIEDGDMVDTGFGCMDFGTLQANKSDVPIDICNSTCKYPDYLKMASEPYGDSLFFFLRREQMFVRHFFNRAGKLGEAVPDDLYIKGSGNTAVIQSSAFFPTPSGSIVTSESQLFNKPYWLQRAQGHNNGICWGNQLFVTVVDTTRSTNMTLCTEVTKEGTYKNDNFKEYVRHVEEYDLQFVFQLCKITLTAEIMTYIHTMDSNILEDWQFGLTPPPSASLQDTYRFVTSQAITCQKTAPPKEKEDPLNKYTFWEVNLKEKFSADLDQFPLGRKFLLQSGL
# T3: HPV6 VLP protein (human papillomavirus type 6 (C-terminal …, UniProt P69898 1-469))
# T3 construct: Virus-like particle self-assembled from the L1 chain, expressed in an insect cell system; also called HPV6 L1; HPV6L1(1-469Y)+HPV33L1(474K-499K)
# T3 sequence: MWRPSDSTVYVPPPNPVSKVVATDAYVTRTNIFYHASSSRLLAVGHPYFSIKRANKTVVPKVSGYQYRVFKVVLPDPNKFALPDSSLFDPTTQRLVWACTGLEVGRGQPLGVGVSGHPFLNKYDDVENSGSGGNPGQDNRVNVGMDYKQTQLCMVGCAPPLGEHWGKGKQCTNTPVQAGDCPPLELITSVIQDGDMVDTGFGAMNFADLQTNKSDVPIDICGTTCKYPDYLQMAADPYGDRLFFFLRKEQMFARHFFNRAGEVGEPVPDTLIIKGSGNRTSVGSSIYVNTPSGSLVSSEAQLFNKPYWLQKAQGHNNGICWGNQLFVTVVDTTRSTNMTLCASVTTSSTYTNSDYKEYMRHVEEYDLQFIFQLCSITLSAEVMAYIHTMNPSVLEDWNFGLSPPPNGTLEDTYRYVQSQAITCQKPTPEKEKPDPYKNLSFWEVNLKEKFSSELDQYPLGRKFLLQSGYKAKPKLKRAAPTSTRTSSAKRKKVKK
# T4: HPV16 VLP protein (human papillomavirus type 16, UniProt P03101 1-474)
# T4 construct: Complete VLP protein; no limits of the construct printed, whole entry named; also called HPV-16L1
# T4 sequence: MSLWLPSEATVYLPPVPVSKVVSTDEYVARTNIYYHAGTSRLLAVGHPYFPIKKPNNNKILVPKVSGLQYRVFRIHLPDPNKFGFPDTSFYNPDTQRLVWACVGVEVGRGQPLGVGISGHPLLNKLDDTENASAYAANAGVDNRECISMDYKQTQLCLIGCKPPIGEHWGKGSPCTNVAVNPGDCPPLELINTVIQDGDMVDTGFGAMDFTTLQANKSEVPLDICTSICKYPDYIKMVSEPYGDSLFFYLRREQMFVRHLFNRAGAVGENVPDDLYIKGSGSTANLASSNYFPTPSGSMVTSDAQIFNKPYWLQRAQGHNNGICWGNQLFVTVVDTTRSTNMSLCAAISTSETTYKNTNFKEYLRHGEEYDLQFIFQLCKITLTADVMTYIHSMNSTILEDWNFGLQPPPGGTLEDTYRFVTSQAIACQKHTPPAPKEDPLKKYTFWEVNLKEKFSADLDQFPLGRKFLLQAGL
# B1: monoclonal antibody HPV6-R003 (antibody, V domains shown)
# VH: QQQLEESGGGLVKPGGTLTLTCKASGIDLSNYYMCWVRQAPGKGLEWIGCIYTGSGRTYYASWAKGRFTISKASSTTVTLQMTSLTAADTATYFCARDYLGWRASNIWGPGTLVTVSS
# VL: ELVMTQTPSSVSAAVGGTVTINCQASQSVYSNNLVWYQQKPGQPPKLLIYGASTLASGVPSRFKGSGSGTQFTLTISDVVCDDAATYYCGGYVSDSTDGTAFGGGTEVVVKG
# notes: here built from variable plus constant region so that the signal peptides are left out; In the sandwich ELISA the same antibody is used as coating antibody and, labelled with horseradish peroxidase, as detection antibody; also called anti-HPV6 L1 protein antibody
# Key:
# Assay in all cases: indirect ELISA, VLP coated at 2 µg/mL, antibody 10 ng/mL, HRP goat anti-rabbit Fc
# HPV18 VLP protein = target: T5, HPV18 VLP protein (human papillomavirus type 18)
# T5 construct: Complete VLP protein; no limits of the construct printed, whole entry named; also called P18SHELL
# HPV51 VLP protein = target: T1, HPV51 VLP protein
# HPV58 VLP protein = target: T2, HPV58 VLP protein
# HPV6 VLP protein = target: T3, HPV6 VLP protein
# HPV16 VLP protein = target: T4, HPV16 VLP protein
binder,measurement,setting,value
B1,OD450-blank,HPV18 VLP protein,0.045 OD450
same,OD450-blank,HPV51 VLP protein,0.041 OD450
same,OD450-blank,HPV58 VLP protein,0.044 OD450
same,OD450-blank,HPV6 VLP protein,2.42 OD450
same,OD450-blank,HPV16 VLP protein,0.048 OD450
